From article PMC9105370, “Human Serine Racemase Weakly Binds the Third PDZ Domain of PSD-95” (International Journal of Molecular Sciences, 2022)

Tests used:
[1] = molecular target: Human serine racemase (human) (UniProt Q9GZT4)
[2] = molecular target: Human serine racemase (human) (UniProt Q9GZT4); test: ITC; PSD-95 PDZ3 (600 uM, syringe) titrated into hSR (20 uM, cell); 25 °C, 50 mM HEPES pH 8.0; single-site model
[3] = molecular target: the molecule itself; test: cross-linking; 0.1% (w/v) glutaraldehyde, 10 min, room temperature, 50 mM HEPES pH 8.0; 15 uM hSR and 30 uM PSD-95 PDZ3, together or each alone; SDS-PAGE

Molecule | hSR activity (beta-elimination of L-serine, LDH-coupled assay), 0.44 uM hSR with 500 uM PSD-95 PDZ3, in the absence of ATP [1] | Kd [2] | binding result [3]
Third PDZ domain of postsynaptic density protein 95 (domain or fragment) | 22% | 82 µM | –
Human serine racemase (enzyme, UniProt Q9GZT4 1-340, looked up, human serine racemase (EC 5.1.1.18), PLP-dependent homodimer; monomer 38 kDa; also called hSR; SR; source: E. coli BL21 CodonPlus (DE3)-RIL co-expressing GroEL and GroES, purified (TALON resin); not shown: His6, N-terminal, kept) MCAQYCISFADVEKAHINIRDSIHLTPVLTSSILNQLTGRNLFFKCELFQKTGSFKIRGALNAVRSLVPDALERKPKAVVTHSSGNHGQALTYAAKLEGIPAYIVVPQTAPDCKKLAIQAYGASIVYCEPSDESRENVAKRVTEETEGIMVHPNQEPAVIAGQGTIALEVLNQVPLVDALVVPVGGGGMLAGIAITVKALKPSVKVYAAEPSNADDCYQSKLKGKLMPNLYPPETIADGVKSSIGLNTWPIIRDLVDDIFTVTEDEIKCATQLVWERMKLLIEPTAGVGVAAVLSQHFQTVSPEVKNICIVLSGGNVDLTSSITWVKQAERPASYQSVSV | – | – | binds
